Reference: US20230322953A1 (HARBOUR BIOMED SHANGHAI, published 2023)
“And” between values parts separate entries of the source, which are not always exact repeats. Equal entries are not always repeated.

T1: human BCMA (human, UniProt Q02223 1-184)
T1 construct: whole, on cells; also called hBCMA; TNFRSF17
T1 sequence (looked up): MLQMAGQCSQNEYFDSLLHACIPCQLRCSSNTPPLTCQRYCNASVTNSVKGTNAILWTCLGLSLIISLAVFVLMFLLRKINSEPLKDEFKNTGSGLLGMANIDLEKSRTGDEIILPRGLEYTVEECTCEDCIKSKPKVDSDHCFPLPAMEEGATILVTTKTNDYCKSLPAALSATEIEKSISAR


Experiments:
human BCMA [1] = biological target: T1, human BCMA; assay: FACS on HEK293T/hBCMA cells, Experiment 3
Description: (§1) This example is intended to investigate the binding activity of anti-BCMA HCAb antibodies to human and cynomolgus monkey BCMAs. […] Specifically, HEK293T/hBCMA cells and HEK293T/cyno BCMA cells were digested and resuspended in a DMEM complete medium. In addition, NCI-H929 cell suspension was collected. The density of each of the three cells was adjusted to 1×10⁶ cells/mL. […] The cells were incubated at 4° C. for 1 h away from light. Thereafter, the cells in each well were rinsed twice with 100 μL of pre-cooled PBS, and centrifuged at 500 g at 4° C. for 5 min, and then the supernatant was discarded. […] The cells in each well were rinsed twice with 100 μL of pre-cooled PBS, and centrifuged at 500 g at 4° C. for 5 min, and then the supernatant was discarded. Finally, the cells in each well were resuspended in 200 μL of pre-cooled PBS. Fluorescence signal values were read using a BD FACS CANTOII flow cytometer or an ACEA NovoCyte flow cytometer, and the data were processed and analyzed using FlowJo v10 (FlowJo, LLC) software. The data were processed and analyzed by plotting using GraphPad Prism 8 software, and binding curves of the antibodies to target cells, EC₅₀ values and other parameters were obtained through four-parameter nonlinear fitting.

human BCMA [2] = biological target: T1, human BCMA; assay: FACS on HEK293T/hBCMA cells, Experiment 2
Description: as §1

human BCMA [3] = biological target: T1, human BCMA; assay: FACS on NCI-H929 cells

Row | EC50 (human BCMA [1]) [nM] | Maximum MFI (human BCMA [1]) | EC50 (human BCMA [2]) [nM] | Maximum MFI (human BCMA [2]) | EC50 (human BCMA [3]) | Maximum MFI (human BCMA [3]) | Binder
1 | 0.602 | 117000 | 1.13 | 17000 | 4.29 nM | 88200 | PR002199 (bispecific antibody, human IgG1, kappa, L234A L235A, also called Positive control 2) chain 1: not shown chain 2: EVQLVESGGGLVQPGRSLRLSCAASGFTFDDYAMHWVRQAPGKGLEWVSGISWNSGSIGYADSVKGRFTISRDNAKNSLYLQMNSLRAEDTALYYCAKDSRGYGDYRLGGAYWGQGTLVTVSSASTKGPSVFPLAPSSKSTSGGTAALGCLVKDYFPEPVTVSWNSGALTSGVHTFPAVLQSSGLYSLSSVVTVPSSSLGTQTYICNVNHKPSNTKVDKKVEPKSCDKTHTCPPCPAPEAAGGPSVFLFPPKPKDTLMISRTPEVTCVVVDVSHEDPEVKFNWYVDGVEVHNAKTKPREEQYNSTYRVVSVLTVLHQDWLNGKEYKCKVSNKALGAPIEKTISKAKGQPREPQVYTLPPCREEMTKNQVSLWCLVKGFYPSDIAVEWESNGQPENNYKTTPPVLDSDGSFFLYSKLTVDKSRWQQGNVFSCSVMHEALHNHYTQKSLSLSPGK chain 3: EVQLLESGGGLVQPGGSLRLSCAASGFTVSSYGMSWVRQAPGKGPEWVSGIRGSDGSTYYADSVKGRFTISRDNSKNTLYLQMNSLRAEDTAVYYCAKQGENDGPFDHRGQGTLVTVSSGGGGSEVQLLESGGGLVQPGGSLRLSCAASGFTVSSYGMSWVRQAPGKGPEWVSGIRGSDGSTYYADSVKGRFTISRDNSKNTLYLQMNSLRAEDTAVYYCAKQGENDGPFDHRGQGTLVTVSSASEPKSSDKTHTCPPCPAPEAAGGPSVFLFPPKPKDTLMISRTPEVTCVVVDVSHEDPEVKFNWYVDGVEVHNAKTKPREEQYNSTYRVVSVLTVLHQDWLNGKEYKCKVSNKALGAPIEKTISKAKGQPREPQVCTLPPSREEMTKNQVSLSCAVKGFYPSDIAVEWESNGQPENNYKTTPPVLDSDGSFFLVSKLTVDKSRWQQGNVFSCSVMHEALHNHYTQKSLSLSPGK
2 | 0.259 | 100000 | 0.355 | 15000 | 1.73 nM and 1.34 nM | – | PR002309 (bispecific antibody, human IgG1, lambda, L234A L235A) light: QAVVTQEPSLTVSPGGTVTLTCRSSTGAVTTSNYANWVQQKPGQAPRGLIGGTNKRAPWTPARFSGSLLGDKAALTLLGAQPEDEAEYFCALWYSNLWVFGGGTKLTVLGQPKAAPSVTLFPPSSEELQANKATLVCLISDFYPGAVTVAWKADSSPVKAGVETTTPSKQSNNKYAASSYLSLTPEQWKSHRSYSCQVTHEGSTVEKTVAPTECS heavy: EVQLLESGGGLVQPGGSLRLSCAASGFTFSTYAMNWVRQAPGKGLEWVSRIRSKYNNYATYYADSVKDRFTISRDDSKSTLYLQMNSLRAEDTAVYYCVRHGNFGNSYVSWFAYWGQGTLVTVSSASTKGPSVFPLAPSSKSTSGGTAALGCLVKDYFPEPVTVSWNSGALTSGVHTFPAVLQSSGLYSLSSVVTVPSSSLGTQTYICNVNHKPSNTKVDKKVEPKSCDKTHTCPPCPAPEAAGGPSVFLFPPKPKDTLMISRTPEVTCVVVDVSHEDPEVKFNWYVDGVEVHNAKTKPREEQYNSTYRVVSVLTVLHQDWLNGKEYKCKVSNKALGAPIEKTISKAKGQPREPQVYTLPPCREEMTKNQVSLWCLVKGFYPSDIAVEWESNGQPENNYKTTPPVLDSDGSFFLYSKLTVDKSRWQQGNVFSCSVMHEALHNHYTQKSLSLSPGK EVQLVETGGGLIQPGGSLRLSCAASGFTVSDNYMTWVRQAPGKGLEWVSVIFSGGNTYYADSVKGRFTISRDNAKNTLYLQMNSLRAEDTALYYCARRNYDDTRGTDVFDIWGQGTMVTVSSRTGGGGSGGGGSGGGGSKLEVQLVETGGGLIQPGGSLRLSCAASGFTVSDNYMTWVRQAPGKGLEWVSVIFSGGNTYYADSVKGRFTISRDNAKNTLYLQMNSLRAEDTALYYCARRNYDDTRGTDVFDIWGQGTMVTVSSASEPKSSDKTHTCPPCPAPEAAGGPSVFLFPPKPKDTLMISRTPEVTCVVVDVSHEDPEVKFNWYVDGVEVHNAKTKPREEQYNSTYRVVSVLTVLHQDWLNGKEYKCKVSNKALGAPIEKTISKAKGQPREPQVCTLPPSREEMTKNQVSLSCAVKGFYPSDIAVEWESNGQPENNYKTTPPVLDSDGSFFLVSKLTVDKSRWQQGNVFSCSVMHEALHNHYTQKSLSLSPGK
3 | 0.183 | 93200 | 0.385 | 14000 | 1.53 nM and 2.01 nM | – | PR002895 (bispecific antibody, human IgG1, lambda, L234A L235A) light: QAVVTQEPSLTVSPGGTVTLTCRSSTGAVTTSNYANWVQQKPGQAPRGLIGGTNKRAPWTPARFSGSLLGDKAALTLLGAQPEDEAEYFCALWYSNLWVFGGGTKLTVLGQPKAAPSVTLFPPSSEELQANKATLVCLISDFYPGAVTVAWKADSSPVKAGVETTTPSKQSNNKYAASSYLSLTPEQWKSHRSYSCQVTHEGSTVEKTVAPTECS heavy: not shown EVQLVETGGGLIQPGGSLRLSCAASGFTVSDNYMTWVRQAPGKGLEWVSVIFSGGNTYYADSVKGRFTISRDNAKNTLYLQMNSLRAEDTALYYCARRNYDDTRGTDVFDIWGQGTMVTVSSGGGGSGGGGSGGGGSEVQLVETGGGLIQPGGSLRLSCAASGFTVSDNYMTWVRQAPGKGLEWVSVIFSGGNTYYADSVKGRFTISRDNAKNTLYLQMNSLRAEDTALYYCARRNYDDTRGTDVFDIWGQGTMVTVSSASEPKSSDKTHTCPPCPAPEAAGGPSVFLFPPKPKDTLMISRTPEVTCVVVDVSHEDPEVKFNWYVDGVEVHNAKTKPREEQYNSTYRVVSVLTVLHQDWLNGKEYKCKVSNKALPAPIEKTISKAKGQPREPQVCTLPPSREEMTKNQVSLSCAVKGFYPSDIAVEWESNGQPENNYKTTPPVLDSDGSFFLVSKLTVDKSRWQQGNVFSCSVMHEALHNHYTQKSLSLSPGK
4 | 0.226 | 91600 | – | 25200 | 1.34 nM and 2.91 nM | – | PR002953 (bispecific antibody, human IgG1, lambda, L234A L235A) light: QAVVTQEPSLTVSPGGTVTLTCRSSTGAVTTSNYANWVQQKPGQAPRGLIGGTNKRAPWTPARFSGSLLGDKAALTLLGAQPEDEAEYFCALWYSNLWVFGGGTKLTVLGQPKAAPSVTLFPPSSEELQANKATLVCLISDFYPGAVTVAWKADSSPVKAGVETTTPSKQSNNKYAASSYLSLTPEQWKSHRSYSCQVTHEGSTVEKTVAPTECS heavy: not shown EVQLVETGGGLIQPGGSLRLSCAASGFTVSDNYMTWVRQAPGKGLEWVSVIFSGGNTYYADSVKGRFTISRDNAKNTLYLQMNSLRAEDTALYYCARRNYDDTRGTDVFDIWGQGTMVTVSSGGGGSGGGGSGGGGSEVQLVETGGGLIQPGGSLRLSCAASGFTVSDNYMTWVRQAPGKGLEWVSVIFSGGNTYYADSVKGRFTISRDNAKNTLYLQMNSLRAEDTALYYCARRNYDDTRGTDVFDIWGQGTMVTVSSASEPKSSDKTHTCPPCPAPEAAGGPSVFLFPPKPKDTLMISRTPEVTCVVVDVSHEDPEVKFNWYVDGVEVHNAKTKPREEQYNSTYRVVSVLTVLHQDWLNGKEYKCKVSNKALPAPIEKTISKAKGQPREPQVCTLPPSREEMTKNQVSLSCAVKGFYPSDIAVEWESNGQPENNYKTTPPVLDSDGSFFLVSKLTVDKSRWQQGNVFSCSVMHEALHNHYTQKSLSLSPGK
